This note sets out measurements from US20260070940A1 (Hoffmann-La Roche, published 2026).

Residue numbers refer to the chain shown, from its start.

T1: full-length human CEA with N-terminal SNAP tag on transfected HEK293 cells (human, UniProt P06731 35-685, SNAP tag labelled with terbium)
T1 construct: whole, on cells; also called hu CEA-SNAP; CEACAM5
T1 sequence (looked up): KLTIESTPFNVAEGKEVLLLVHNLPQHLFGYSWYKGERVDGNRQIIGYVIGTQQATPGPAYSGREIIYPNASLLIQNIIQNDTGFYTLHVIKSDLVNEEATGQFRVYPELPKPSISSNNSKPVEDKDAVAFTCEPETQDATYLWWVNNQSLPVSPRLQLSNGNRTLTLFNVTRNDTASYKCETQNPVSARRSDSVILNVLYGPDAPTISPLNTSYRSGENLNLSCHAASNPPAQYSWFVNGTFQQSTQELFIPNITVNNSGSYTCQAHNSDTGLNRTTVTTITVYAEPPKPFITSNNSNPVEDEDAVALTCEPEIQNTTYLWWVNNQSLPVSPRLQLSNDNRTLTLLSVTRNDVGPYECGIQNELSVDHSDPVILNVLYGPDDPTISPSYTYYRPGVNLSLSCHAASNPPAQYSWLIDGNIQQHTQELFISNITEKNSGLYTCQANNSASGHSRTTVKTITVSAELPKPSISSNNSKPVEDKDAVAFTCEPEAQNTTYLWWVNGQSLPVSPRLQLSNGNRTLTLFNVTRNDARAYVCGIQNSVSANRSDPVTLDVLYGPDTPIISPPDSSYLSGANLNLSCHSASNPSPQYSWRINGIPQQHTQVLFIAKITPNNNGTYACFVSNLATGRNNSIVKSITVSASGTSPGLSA

T2: hu(NA1)BA-avi-His, biotinylated (human, biotin on the avi-tag)
T2 construct: CEACAM5 domains N and A1 followed by two CEACAM1 Ig domains, avi-tag and his-tag; also called CEA antigen; chimera of CEACAM5 domains N and A1 on CEACAM1
T2 chain: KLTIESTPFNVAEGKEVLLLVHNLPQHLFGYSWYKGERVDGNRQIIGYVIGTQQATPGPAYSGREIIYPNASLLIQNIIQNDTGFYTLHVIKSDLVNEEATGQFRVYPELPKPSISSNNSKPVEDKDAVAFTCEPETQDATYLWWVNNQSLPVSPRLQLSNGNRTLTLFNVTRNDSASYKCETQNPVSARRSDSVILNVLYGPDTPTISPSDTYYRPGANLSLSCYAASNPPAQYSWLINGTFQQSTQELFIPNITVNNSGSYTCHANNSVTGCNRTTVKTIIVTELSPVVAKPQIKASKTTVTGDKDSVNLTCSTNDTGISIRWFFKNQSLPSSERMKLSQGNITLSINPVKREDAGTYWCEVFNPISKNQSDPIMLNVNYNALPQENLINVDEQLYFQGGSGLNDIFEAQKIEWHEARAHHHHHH

T3: MCSP antigen, amino acids 1553 to 2184 of matured MCSP with C-terminal avi-tag and His-tag, biotinylated (Homo sapiens (Human), UniProt Q6UVK1 1582-2213, limits assumed, biotin on the avi-tag)
T3 construct: also called recombinant MCSP
T3 sequence: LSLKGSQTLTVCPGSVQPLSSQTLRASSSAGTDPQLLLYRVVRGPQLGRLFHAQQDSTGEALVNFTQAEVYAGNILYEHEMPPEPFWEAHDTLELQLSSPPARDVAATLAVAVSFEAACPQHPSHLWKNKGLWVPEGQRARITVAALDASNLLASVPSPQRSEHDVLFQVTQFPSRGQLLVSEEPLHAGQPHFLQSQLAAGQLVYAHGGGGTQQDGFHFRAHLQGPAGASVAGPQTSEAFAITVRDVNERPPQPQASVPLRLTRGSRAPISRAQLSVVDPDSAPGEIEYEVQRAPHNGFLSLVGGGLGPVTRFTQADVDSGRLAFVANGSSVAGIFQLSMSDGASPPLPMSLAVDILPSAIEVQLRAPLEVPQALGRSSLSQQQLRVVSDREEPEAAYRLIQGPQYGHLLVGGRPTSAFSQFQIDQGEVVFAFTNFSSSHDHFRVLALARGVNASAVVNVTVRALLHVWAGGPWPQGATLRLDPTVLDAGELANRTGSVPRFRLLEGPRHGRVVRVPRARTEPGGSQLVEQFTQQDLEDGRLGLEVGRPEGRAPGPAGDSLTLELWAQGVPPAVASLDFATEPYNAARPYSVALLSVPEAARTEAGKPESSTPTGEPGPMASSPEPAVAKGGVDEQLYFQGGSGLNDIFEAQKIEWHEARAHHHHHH

B1: anti-CEA aVH P112.083 (VHH)
VHH: EVQLVESGGGLVQPGGSLRLSCAASGFNIKDTCIGWVRRAPGKEEELVADICPYKGSTRYADSVKGRFTISADTSKNTAYLQMNSLRAEDTAVYYCAIVSARDGYYNYWGQGTTVTVSS
B2: anti-CEA aVH P124.067 (VHH)
VHH: B1 VHH with D50A, P53E, S57Y, V99A, A101P, R102V, G104Q
B3: anti-CEA aVH P118.093 (VHH)
VHH: B1 VHH with Y54S, K55Y, S57G, A101K, R102I, G104Q
B4: anti-CEA aVH P124.037 (VHH)
VHH: B1 VHH with D50Q, P53Q, K55H, S100G, A101Q, R102N, D103Y, G104P, Y105V
B5: anti-CEA aVH P127.141 (VHH)
VHH: B1 VHH with D50G, P53E, K55T, A101Q, R102S, D103R, G104S, Y105V
B6: anti-CEA aVH P118.008 (VHH)
VHH: B1 VHH with D50Y, P53N, K55T, S57Y, V99T, A101Y, R102H, D103G, G104Q, Y105G
B7: anti-CEA aVH P112.068 (VHH)
VHH: B1 VHH with D50K, P53K, K55S, S57H, I98A, A101V, Y105H
B8: anti-CEA aVH P118.089 (VHH)
VHH: EVQLVESGGGLVQPGGSLRLSCAASGFNIKDTCIGWVRRAPGKEEELVASICQYSGYTRYADSVKGRFTISADTSKNTAYLQMNSLRAEDTAVYYCAITSHHGDYNYWGQGTTVTVSS
B9: anti-FAP aVH P032.056 (VHH)
VHH: EVQLVESGGGLVQPGGSLRLSCAASSFNIKDTYIGWVRRAPGKEEELVANIHCRSGYTRYADSVKGRFTISCDTSKNTAYLQMNSLRAEDTAVYYCAHSGSRYIYKYWGQGTTVTVSS
B10: anti-FAP aVH P054.035 (VHH)
VHH: EVQLVESGGGLVQPGGSLRLSCAASGFNIKDTCIGWVRRAPGKEEELVANICGSYGHTRYADSVKGRFTISADTSKNTAYLQMNSLRAEDTAVYYCASSYTVYRSYAYWGQGTTVTVSS
B11: anti-FAP aVH P054.064 (VHH)
VHH: B10 VHH with Y55N, H57Y, S105G, A107D
B12: anti-FAP aVH P053.020 (VHH)
VHH: B10 VHH with N50R, S54Q, Y55I, H57S, S98T, A107D
B13: anti-FAP aVH P048.019 (VHH)
VHH: B10 VHH with G53P, S54K, Y55H, H57A, S98Y, Y100G, T101N, R104N, S105R, A107K
B14: anti-FAP aVH P034.066 (VHH)
VHH: EVQLVESGGGLVQPGGSLRLSCAASGFNIKDTCIGWVRRAPGKEEELVANICGITGYTRYADSVKGRFTISADTSKNTAYLQMNSLRAEDTAVYYCAKSGGPKGYTYWGQGTTVTVSS
B15: anti-FAP aVH P034.001 (VHH)
VHH: B14 VHH with I54S, T55I, Y57A, P102H, T106R
B16: anti-FAP aVH P058.068 (VHH)
VHH: B14 VHH with G53Q, I54T, T55H, K98Y, S99K, P102G, K103R, G104Y, T106D
B17: anti-FAP aVH P034.007 (VHH)
VHH: B14 VHH with I54G, T55D, Y57H, K98T, G100Y, G101T, P102V, K103Y, G104R, T106Y
B18: anti-FAP aVH P031.033 (VHH)
VHH: B14 VHH with I54Q, T55Y, Y57Q, P102R, K103H, T106E
B19: anti-MCSP aVH clone 57.1 (VHH)
VHH: EVQLVESGGGLVQPGGSLRLSCAASGFNIKQNCIEWVRRAPGKGTELVANICHDIGSTRYADSVKGRFTISADTSKNTAYLQMNSLRAEDTAVYYCAAWEQKGFNYWGQGTTVTVSS
B20: anti-MCSP aVH clone 2 (VHH)
VHH: EVQLVESGGGLVQPGGSLRLSCAASSFNIKDTYIGWVRRAPGKGTELVASIDCIYGYTRYADSVKGRFTISCDTSKNTAYLQMNSLRAEDTAVYYCAAQGYRLHYWGQGTTVTVSS
B21: anti-MCSP aVH clone 44 (VHH)
VHH: EVQLVESGGGLVQPGGSLRLSCAASGFNIKDGYIDWVRRAPGKGTELVASIECTNGRATRYADSVKGRFTISCDTSKNTAYLQMNSLRAEDTAVYYCAYAGIGYYFYYWGQGTTVTVSS
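For result in this document: SPR at 25 °C with biotinylated human or murine FAP captured via neutravidin, aVH-containing bacterial supernatants diluted 1:3 as analyte, 600 s dissociation, blank supernatant without aVH as reference.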

The target of one experiment is T1, full-length human CEA with N-terminal …. As to the kind of experiment: FRET (TagLite) on hu CEA-SNAP cells.
Experimental: Binding of a selected set of purified aVH binders to their epitope on CEA-expressing cells was determined by Fluorescence Resonance Energy Transfer (FRET) analysis. For this analysis, the DNA sequence encoding for the SNAP Tag (plasmid purchased from Cisbio) was amplified by PCR and ligated into an expression vector, containing the full length human CEA sequence. The resulting fusion protein was comprised of full-length CEA with an N-terminal SNAP tag. HEK293 cells were transfected with 10 μg DNA using Lipofectamine 2000 as transfection reagent. After an incubation time of 20 h, cells were washed with PBS and incubated for 1 h at 37° C. in LabMed buffer (Cisbio) containing 100 nM SNAP-Lumi4Tb (Cibsio), leading to specific labeling of the SNAP Tag. Subsequently, cells were washed 4 times with LabMed buffer to remove unbound dye. […] Cells were then stored frozen at −80° C. for up to 6 months. Binding was measured by adding CEA-specific aVH binders at a concentration ranging from 0.005 up to 100 nM to labeled cells (100 cells per well) followed by addition of d2-labeled anti-his tag antibody (Cisbio, final concentration was 200 nM per well) as acceptor molecule for the FRET. […] The ratio of acceptor to donor emission was calculated and the ratio of the background control (cells only incubated with anti-his tag antibody) subtracted. Curves were analysed in GraphPad Prism5 (FIG. 9) and KDs calculated (Table 26).
Take B1: binding was put at a Kd of 10.4 nM.
On the same count and under the same terms, to B2 belongs 74.3 nM; to B3, 47.3 nM.
Same read-out and setting: with B4 the figure was 11.1 nM; with B5, 28.3 nM.
For B6, the Kd came out at 28.6 nM.
Still for that read-out and setting: to B7 belongs 14.6 nM.
The same measure, in the same setting: to B8 belongs 16.8 nM.

For the next experiment, the target named is T2, hu(NA1)BA-avi-His, biotinylated. As to the kind of experiment: SPR, bacterial supernatant.
Experimental: The off-rate of selected aVH clones was measured using a ProteOn XPR36 instrument (Biorad) at 25° C. with biotinylated hu(NA1)BA-avi-His immobilized on NLC chips by neutravidin capture. CEACAM1-avi-his was used as a negative control. Immobilization of recombinant antigens (ligand): Antigens were diluted with PBST (10 mM phosphate, 150 mM sodium chloride pH 7.4, 0.005% Tween 20) to 10 μg/ml, then injected at 30 μl/minute at varying contact times, to achieve immobilization levels of 400, 800 or 1600 response units (RU) in vertical orientation. Injection of analytes: Injection direction was changed to horizontal orientation and 5 individual aVH-containing supernatants that were diluted 1:3 with PBST were injected simultaneously at 60 μl/min along separate channels 1-5, with association times between 120 and 180s, and dissociation times of 800s. Diluted bacterial supernatant without aVH was injected along the sixth channel to provide an “in-line” blank for referencing. Dissociation rate constants (koff) were calculated using the “koff-rate” calculation in ProteOn Manager v3.1 software.
B1 displayed a koff of 0.00034 s⁻¹.
Same read-out and setting: to B2 belongs 0.00704 s⁻¹.
On to B3, for which the koff was found to be 0.033 s⁻¹.
With B4, the koff stood at 0.0395 s⁻¹.
On to B5, for which the koff amounted to 0.0317 s⁻¹.
On to B6, for which the koff is 0.0305 s⁻¹. This koff and that of the molecule before are within 1.5-fold of each other.
Same read-out and setting: with B7 the figure was 0.0016 s⁻¹; with B8, 0.0599 s⁻¹.

A further experiment has as its target T4, murine FAP avi his, biotinylated (murine, UniProt P97321 27-761, biotin on the avi-tag).
T4 construct: also called muFAP; mu FAP
The experiment is described as follows: SPR, bacterial supernatant.
Experimental: (§1) Clones that were identified in the “mix-and-read assay” performed with the Mirrorball instrument were further analyzed by Surface Plasmon Resonance (SPR). The off-rate of selected aVH clones was measured using a ProteOn XPR36 instrument (Biorad) at 25° C. with biotinylated human and murine FAP antigen immobilized on NLC chips by neutravidin capture. Immobilization of recombinant antigens (ligand): Antigens were diluted with PBST (10 mM phosphate, 150 mM sodium chloride pH 7.4, 0.005% Tween 20) to 10 μg/ml, then injected at 30 μl/minute at varying contact times, to achieve immobilization levels of 400, 800 or 1600 response units (RU) in vertical orientation. Injection of analytes: Injection direction was changed to horizontal orientation and 5 individual aVH-containing supernatants that were diluted 1:3 with PBST were injected simultaneously at 60 μl/min along separate channels 1-5, with association times between 120 and 180s, and dissociation times of 600s. Diluted bacterial supernatant without aVH was injected along the sixth channel to provide an “in-line” blank for referencing. Dissociation rate constants (koff) were calculated using the “koff-rate” calculation in ProteOn Manager v3.1 software.
B9 gave a koff of 0.0222 s⁻¹.
For the molecule B10, the koff worked out at 0.0151 s⁻¹.
On the same count and under the same terms, to B11 belongs 0.0312 s⁻¹; to B12, 0.0294 s⁻¹.
With B13, the koff was found to be 0.0171 s⁻¹.
On the same count and under the same terms, with B14 the figure was 0.00253 s⁻¹; with B15, 0.0176 s⁻¹.
With B16, the binding result is “no binding”.
Consider B17, for which the koff is 0.0106 s⁻¹.
B18 had a koff of 0.0106 s⁻¹.

The next experiment deals with T5, human FAP avi his, biotinylated (human, UniProt Q12884 27-759, biotin on the avi-tag).
T5 construct: also called huFAP
As to the kind of experiment: SPR, bacterial supernatant.
Experimental: as §1
Consider B9, for which the binding result is listed as “no binding”.
B10: the koff amounted to 0.0141 s⁻¹.
The molecule B11 displayed a koff of 0.0161 s⁻¹.
Same read-out and setting: with B12 the figure was 0.0125 s⁻¹.
Same read-out and setting: with B13 the figure was 0.00547 s⁻¹; with B14, 0.000215 s⁻¹.
For B15, the binding result was “no binding”.
B16 registered a koff of 0.00316 s⁻¹.
The same measure, in the same setting: to B17 belongs 0.00385 s⁻¹.
With B18, the binding result was “no binding”.

In a further experiment the target is T2, hu(NA1)BA-avi-His, biotinylated. As to the kind of experiment: SPR, purified aVH.
Experimental: CEACAM1-avi-his was again used as a negative control Immobilization of recombinant antigens (ligand): Antigen was diluted with PBST (10 mM phosphate, 150 mM sodium chloride pH 7.4, 0.005% Tween 20) to 10 μg/ml, then injected at 30 μl/minute at varying contact times, to achieve immobilization levels of 200, 400 or 800 response units (RU) in vertical orientation. […] Buffer (PBST) was injected along the sixth channel to provide an “in-line” blank for referencing. Association rate constants (kₒₙ) and dissociation rate constants (koff) were calculated using a simple one-to-one Langmuir binding model in ProteOn Manager v3.1 software by simultaneously fitting the association and dissociation sensorgrams. The equilibrium dissociation constant (KD) was calculated as the ratio koff/kₒₙ.
Molecule B1 showed a Kd of 7.26 nM.
The same measure, in the same setting: to B2 belongs 296 nM; to B3, 102 nM.
Still for that read-out and setting: to B4 belongs 15.2 nM; to B5, 135 nM; to B6, 96.2 nM.
Same read-out and setting: to B7 belongs 16.2 nM.
With B8, the Kd was 37.9 nM. This Kd lies about 2.3-fold higher than the previous one.

The target of the next experiment is T3, MCSP antigen, amino acids 1553 to 2184 …. The experiment is described as follows: SPR, MCSP immobilised.
For the molecule B19, the Kd is 48 nM, the koff is 0.0142 s⁻¹ and the kon was found to be 295000 M⁻¹ s⁻¹.
Molecule B20 had a Kd of 8 nM, a koff of 0.00339 s⁻¹ and a kon of 458000 M⁻¹ s⁻¹.
The like results for B21 were, in that order, 109 nM, 0.0163 s⁻¹ and 150000 M⁻¹ s⁻¹.
